Reference: the Human Domainome abundance scans (Beltran et al. 2025)
± gives the uncertainty stated by the source.

B1: Receptor-interacting serine/threonine-protein kinase 2, residues 438 to 518; numbered along this chain, O43353 (parent)
chain: QWIQSKREDIVNQMTEACLNQSLDALLSRDLIMKEDYELVSTKPTRTSKVRQLLDTTDIQGEEFAKVIVQKLKDNKQMGLQ

Variants of: B1
Test: abundance fitness (aPCA) (normalised: wild type 0, dead -1); higher = more abundant; growth selection in yeast, the domain comes from the species named
Conditions: Homo sapiens

| Variant | abundance fitness |
| --- | --- |
| QWIQSKREDIVNQMTEACLNQSLFALLSRDLIMKEDYELVSTKPTRTSKVRQLLDTTDIQGEEFAKVIVQKLKDNKQMGLQ [D24F] | -0.779 ± 0.22 |
| QWIQSKREDIVNQMTEACLNQSLAALLSRDLIMKEDYELVSTKPTRTSKVRQLLDTTDIQGEEFAKVIVQKLKDNKQMGLQ [D24A] | -0.106 ± 0.084 |
| QWIQSKREDIVNQMTEACLNQSLGALLSRDLIMKEDYELVSTKPTRTSKVRQLLDTTDIQGEEFAKVIVQKLKDNKQMGLQ [D24G] | -0.692 ± 0.1 |
| QWIQSKREDIVNQMTEACLNQSLEALLSRDLIMKEDYELVSTKPTRTSKVRQLLDTTDIQGEEFAKVIVQKLKDNKQMGLQ [D24E] | 0.034 ± 0.33 |
| QWIQSKREDIVNQMTEACLNQSLCALLSRDLIMKEDYELVSTKPTRTSKVRQLLDTTDIQGEEFAKVIVQKLKDNKQMGLQ [D24C] | -0.337 ± 0.15 |
| QWIQSKREDIVNQMTEACLNLSLDALLSRDLIMKEDYELVSTKPTRTSKVRQLLDTTDIQGEEFAKVIVQKLKDNKQMGLQ [Q21L] | -0.319 ± 0.073 |
| QWIQSKREDIVNQMTEACLNFSLDALLSRDLIMKEDYELVSTKPTRTSKVRQLLDTTDIQGEEFAKVIVQKLKDNKQMGLQ [Q21F] | -0.776 ± 0.28 |
| QWIQSKREDIVNQMTEACLNASLDALLSRDLIMKEDYELVSTKPTRTSKVRQLLDTTDIQGEEFAKVIVQKLKDNKQMGLQ [Q21A] | 0.089 ± 0.12 |
| QWIQSKREDIVNQMTEACLNCSLDALLSRDLIMKEDYELVSTKPTRTSKVRQLLDTTDIQGEEFAKVIVQKLKDNKQMGLQ [Q21C] | -0.475 ± 0.12 |
| QWIQSKREDIVNQMTEACLNISLDALLSRDLIMKEDYELVSTKPTRTSKVRQLLDTTDIQGEEFAKVIVQKLKDNKQMGLQ [Q21I] | -0.788 ± 0.1 |
| QWIQSKREDIVNQMTEACLNYSLDALLSRDLIMKEDYELVSTKPTRTSKVRQLLDTTDIQGEEFAKVIVQKLKDNKQMGLQ [Q21Y] | -0.313 ± 0.22 |
| QWIQSKREDIVNQMTEACLNGSLDALLSRDLIMKEDYELVSTKPTRTSKVRQLLDTTDIQGEEFAKVIVQKLKDNKQMGLQ [Q21G] | -0.432 ± 0.064 |
| QWIQSKREDIVNQMTEACLNNSLDALLSRDLIMKEDYELVSTKPTRTSKVRQLLDTTDIQGEEFAKVIVQKLKDNKQMGLQ [Q21N] | -0.357 ± 0.2 |
| QWIQSKREDIVNQMTEACLNMSLDALLSRDLIMKEDYELVSTKPTRTSKVRQLLDTTDIQGEEFAKVIVQKLKDNKQMGLQ [Q21M] | -0.736 ± 0.19 |
| QWIQSKREDIVNQMTEACLNDSLDALLSRDLIMKEDYELVSTKPTRTSKVRQLLDTTDIQGEEFAKVIVQKLKDNKQMGLQ [Q21D] | 0.183 ± 0.11 |
| QWIQSKREDIVNQMTEACLNHSLDALLSRDLIMKEDYELVSTKPTRTSKVRQLLDTTDIQGEEFAKVIVQKLKDNKQMGLQ [Q21H] | -0.562 ± 0.13 |
| QWIQSKREDIVNQMTEACLNRSLDALLSRDLIMKEDYELVSTKPTRTSKVRQLLDTTDIQGEEFAKVIVQKLKDNKQMGLQ [Q21R] | -0.286 ± 0.051 |

| Variant | abundance fitness |
| --- | --- |
| QWIQSKREDIVNQMTEACLNESLDALLSRDLIMKEDYELVSTKPTRTSKVRQLLDTTDIQGEEFAKVIVQKLKDNKQMGLQ [Q21E] | -0.096 ± 0.1 |
| QWIQSKREDIVNQMTEACLNPSLDALLSRDLIMKEDYELVSTKPTRTSKVRQLLDTTDIQGEEFAKVIVQKLKDNKQMGLQ [Q21P] | -0.793 ± 0.1 |
| QWIQSKREDIVNQMTEACLNSSLDALLSRDLIMKEDYELVSTKPTRTSKVRQLLDTTDIQGEEFAKVIVQKLKDNKQMGLQ [Q21S] | -0.141 ± 0.062 |
| QWIQSKREDIVNQMTEACLNTSLDALLSRDLIMKEDYELVSTKPTRTSKVRQLLDTTDIQGEEFAKVIVQKLKDNKQMGLQ [Q21T] | -0.344 ± 0.08 |
| QWIQSKREDIVNQMTEACLNKSLDALLSRDLIMKEDYELVSTKPTRTSKVRQLLDTTDIQGEEFAKVIVQKLKDNKQMGLQ [Q21K] | -0.338 ± 0.18 |
| QWIQSKREDIVNQMTEACLNVSLDALLSRDLIMKEDYELVSTKPTRTSKVRQLLDTTDIQGEEFAKVIVQKLKDNKQMGLQ [Q21V] | -0.382 ± 0.085 |
| QWIQSKREDIVNQMTEACLNWSLDALLSRDLIMKEDYELVSTKPTRTSKVRQLLDTTDIQGEEFAKVIVQKLKDNKQMGLQ [Q21W] | -1.07 ± 0.2 |
| QWIQSKREDIVNQMTEACLWQSLDALLSRDLIMKEDYELVSTKPTRTSKVRQLLDTTDIQGEEFAKVIVQKLKDNKQMGLQ [N20W] | 0.075 ± 0.11 |
| QWIQSKREDIVNQMTEACLEQSLDALLSRDLIMKEDYELVSTKPTRTSKVRQLLDTTDIQGEEFAKVIVQKLKDNKQMGLQ [N20E] | -0.571 ± 0.36 |
| QWIQSKREDIVNQMTEACLFQSLDALLSRDLIMKEDYELVSTKPTRTSKVRQLLDTTDIQGEEFAKVIVQKLKDNKQMGLQ [N20F] | 0.023 ± 0.37 |
| QWIQSKREDIVNQMTEACLCQSLDALLSRDLIMKEDYELVSTKPTRTSKVRQLLDTTDIQGEEFAKVIVQKLKDNKQMGLQ [N20C] | -0.564 ± 0.16 |
| QWIQSKREDIVNQMTEACLRQSLDALLSRDLIMKEDYELVSTKPTRTSKVRQLLDTTDIQGEEFAKVIVQKLKDNKQMGLQ [N20R] | -0.106 ± 0.098 |
| QWIQSKREDIVNQMTEACLHQSLDALLSRDLIMKEDYELVSTKPTRTSKVRQLLDTTDIQGEEFAKVIVQKLKDNKQMGLQ [N20H] | 0.119 ± 0.38 |
| QWIQSKREDIVNQMTEACLLQSLDALLSRDLIMKEDYELVSTKPTRTSKVRQLLDTTDIQGEEFAKVIVQKLKDNKQMGLQ [N20L] | -0.102 ± 0.1 |
| QWIQSKREDIVNQMTEACLSQSLDALLSRDLIMKEDYELVSTKPTRTSKVRQLLDTTDIQGEEFAKVIVQKLKDNKQMGLQ [N20S] | -0.043 ± 0.11 |
| QWIQSKREDIVNQMTEACLQQSLDALLSRDLIMKEDYELVSTKPTRTSKVRQLLDTTDIQGEEFAKVIVQKLKDNKQMGLQ [N20Q] | -0.091 ± 0.42 |
| QWIQSKREDIVNQMTEACLYQSLDALLSRDLIMKEDYELVSTKPTRTSKVRQLLDTTDIQGEEFAKVIVQKLKDNKQMGLQ [N20Y] | 0.112 ± 0.2 |
